Substrate in data set [1]: Nc1nc2c(ncn2[C@H]2C[C@H](O)[C@@H](CO[P@](=O)(O)OP(=O)(O)O)O2)c(=O)[nH]1
Description: purified protein. The following applies: pH 9.4, 7.5 mM Mg2+ (optimal conditions), 37°C.

Substrate in data set [2]: Nc1nc2c([nH]c(=O)n2[C@H]2C[C@H](O)[C@@H](COP(=O)(O)OP(=O)(O)O)O2)c(=O)[nH]1
Description: purified protein. To be noted: pH 9.4, 7.5 mM Mg2+ (optimal conditions), 37°C.

B1: DR0975 protein (Deinococcus radiodurans R1 = ATCC 13939 = DSM 20539) (protein)
chain: MGRRDLLVAAGILRDRFGRVLLVGNDWQGHGRVRHTLPGGVVEHGETLPEALYREIYEETGLKLTGIKHMAYTVHIEDERRGERAIAVAFEATWEGLLNPADPDGFIVEARFCTVDEALDKLDSPPMREPLADYLNTGEPGRFYAFKGWDGRGGLRIPTLKPVVKDR
One may read the Km as the concentration of substrate that gives half-maximal velocity. For orientation: kcat means the maximal rate divided by the concentration of active sites. As for B1, in “purified protein [1]”, the Km was 110 µM and the catalytic constant (kcat) was found to be 0.18 s⁻¹. In addition, in “purified protein [2]”, the Michaelis-Menten constant (Km) is 170 µM and the kcat was 0.13 s⁻¹.
